Test results as given in article PMC7367873, “Dissecting the sequence determinants for dephosphorylation by the catalytic subunits of phosphatases PP1 and PP2A” (Nature Communications, 2020).

B1: MYPN (protein, UniProt Q86TC9 1-1320, looked up)
Myopalladin: MQDDSIEASTSISQLLRESYLAETRHRGNNERSRAEPSSNPCHFGSPSGAAEGGGGQDDLPDLSAFLSQEELDESVNLARLAINYDPLEKADETQARKRLSPDQMKHSPNLSFEPNFCQDNPRSPTSSKESPQEAKRPQYCSETQSKKVFLNKAADFIEELSSLFKSHSSKRIRPRACKNHKSKLESQNKVMQENSSSFSDLSERRERSSVPIPIPADTRDNEVNHALEQQEAKRREAEQAASEAAGGDTTPGSSPSSLYYEEPLGQPPRFTQKLRSREVPEGTRVQLDCIVVGIPPPQVRWYCEGKELENSPDIHIVQAGNLHSLTIAEAFEEDTGRYSCFASNIYGTDSTSAEIYIEGVSSSDSEGDPNKEEMNRIQKPNEVSSPPTTSAVIPPAVPQAQHLVAQPRVATIQQCQSPTNYLQGLDGKPIIAAPVFTKMLQNLSASEGQLVVFECRVKGAPSPKVEWYREGTLIEDSPDFRILQKKPRSMAEPEEICTLVIAEVFAEDSGCFTCTASNKYGTVSSIAQLHVRGNEDLSNNGSLHSANSTTNLAAIEPQPSPPHSEPPSVEQPPKPKLEGVLVNHNEPRSSSRIGLRVHFNLPEDDKGSEASSEAGVVTTRQTRPDSFQERFNGQATKTPEPSSPVKEPPPVLAKPKLDSTQLQQLHNQVLLEQHQLQNPPPSSPKEFPFSMTVLNSNAPPAVTTSSKQVKAPSSQTFSLARPKYFFPSTNTTAATVAPSSSPVFTLSSTPQTIQRTVSKESLLVSHPSVQTKSPGGLSIQNEPLPPGPTEPTPPPFTFSIPSGNQFQPRCVSPIPVSPTSRIQNPVAFLSSVLPSLPAIPPTNAMGLPRSAPSMPSQGLAKKNTKSPQPVNDDNIRETKNAVIRDLGKKITFSDVRPNQQEYKISSFEQRLMNEIEFRLERTPVDESDDEIQHDEIPTGKCIAPIFDKRLKHFRVTEGSPVTFTCKIVGIPVPKVYWFKDGKQISKRNEHCKMRREGDGTCSLHIESTTSDDDGNYTIMAANPQGRISCSGHLMVQSLPIRSRLTSAGQSHRGRSRVQERDKEPLQERFFRPHFLQAPGDMVAHEGRLCRLDCKVSGLPPPELTWLLNGQPVLPDASHKMLVRETGVHSLLIDPLTQRDAGTYKCIATNKTGQNSFSLELSVVAKEVKKAPVILEKLQNCGVPEGHPVRLECRVIGMPPPVFYWKKDNETIPCTRERISMHQDTTGYACLLIQPAKKSDAGWYTLSAKNEAGIVSCTARLDIYAQWHHQIPPPMSVRPSGSRYGSLTSKGLDIFSAFSSMESTMVYSCSSRSVVESDEL
B2: TFEB (protein, UniProt P19484 1-476, looked up)
Transcription factor EB: MASRIGLRMQLMREQAQQEEQRERMQQQAVMHYMQQQQQQQQQQLGGPPTPAINTPVHFQSPPPVPGEVLKVQSYLENPTSYHLQQSQHQKVREYLSETYGNKFAAHISPAQGSPKPPPAASPGVRAGHVLSSSAGNSAPNSPMAMLHIGSNPERELDDVIDNIMRLDDVLGYINPEMQMPNTLPLSSSHLNVYSSDPQVTASLVGVTSSSCPADLTQKRELTDAESRALAKERQKKDNHNLIERRRRFNINDRIKELGMLIPKANDLDVRWNKGTILKASVDYIRRMQKDLQKSRELENHSRRLEMTNKQLWLRIQELEMQARVHGLPTTSPSGMNMAELAQQVVKQELPSEEGPGEALMLGAEVPDPEPLPALPPQAPLPLPTQPPSPFHHLDFSHSLSFGGREDEGPPGYPEPLAPGHGSPFPSLSKKDLDLMLLDDSLLPLASDPLLSTMSPEASKASSRRSSFSMEEGDVL
B3: HIRIP3 (protein, UniProt Q9BW71 1-556, looked up)
HIRA-interacting protein 3: MAREKEMQEFTRSFFRGRPDLSTLTHSIVRRRYLAHSGRSHLEPEEKQALKRLVEEELLKMQVDEAASREDKLDLTKKGKRPPTPCSDPERKRFRFNSESESGSEASSPDYFGPPAKNGVAAEVSPAKEENPRRASKAVEESSDEERQRDLPAQRGEESSEEEEKGYKGKTRKKPVVKKQAPGKASVSRKQAREESEESEAEPVQRTAKKVEGNKGTKSLKESEQESEEEILAQKKEQREEEVEEEEKEEDEEKGDWKPRTRSNGRRKSAREERSCKQKSQAKRLLGDSDSEEEQKEAASSGDDSGRDREPPVQRKSEDRTQLKGGKRLSGSSEDEEDSGKGEPTAKGSRKMARLGSTSGEESDLEREVSDSEAGGGPQGERKNRSSKKSSRKGRTRSSSSSSDGSPEAKGGKAGSGRRGEDHPAVMRLKRYIRACGAHRNYKKLLGSCCSHKERLSILRAELEALGMKGTPSLGKCRALKEQREEAAEVASLDVANIISGSGRPRRRTAWNPLGEAAPPGELYRRTLDSDEERPRPAPPDWSHMRGIISSDGESN
B4: SAFB (protein, UniProt Q15424 2-915, looked up)
Scaffold attachment factor B1: AETLSGLGDSGAAGAAALSSASSETGTRRLSDLRVIDLRAELRKRNVDSSGNKSVLMERLKKAIEDEGGNPDEIEITSEGNKKTSKRSSKGRKPEEEGVEDNGLEENSGDGQEDVETSLENLQDIDIMDISVLDEAEIDNGSVADCVEDDDADNLQESLSDSRELVEGEMKELPEQLQEHAIEDKETINNLDTSSSDFTILQEIEEPSLEPENEKILDILGETCKSEPVKEESSELEQPFAQDTSSVGPDRKLAEEEDLFDSAHPEEGDLDLASESTAHAQSSKADSLLAVVKREPAEQPGDGERTDCEPVGLEPAVEQSSAASELAEASSEELAEAPTEAPSPEARDSKEDGRKFDFDACNEVPPAPKESSTSEGADQKMSSPEDDSDTKRLSKEEKGRSSCGRNFWVSGLSSTTRATDLKNLFSKYGKVVGAKVVTNARSPGARCYGFVTMSTAEEATKCINHLHKTELHGKMISVEKAKNEPVGKKTSDKRDSDGKKEKSSNSDRSTNLKRDDKCDRKDDAKKGDDGSGEKSKDQDDQKPGPSERSRATKSGSRGTERTVVMDKSKGVPVISVKTSGSKERASKSQDRKSASREKRSVVSFDKVKEPRKSRDSESHSRVRERSEREQRMQAQWEREERERLEIARERLAFQRQRLERERMERERLERERMHVEHERRREQERIHREREELRRQQELRYEQERRPAVRRPYDLDRRDDAYWPEAKRAALDERYHSDFNRQDRFHDFDHRDRGRYPDHSVDRREGSRSMMGEREGQHYPERHGGPERHGRDSRDGWGGYGSDKRMSEGRGLPPPPRRDWGDHGRREDDRSWQGTADGGMMDRDHKRWQGGERSMSGHSGPGHMMNRGGMSGRGSFAPGGASRGHPIPHGGMQGGFGGQSRGSRPSDARFTRRY
B5: HDAC7 (protein, UniProt Q8WUI4 1-952, looked up)
Histone deacetylase 7: MDLRVGQRPPVEPPPEPTLLALQRPQRLHHHLFLAGLQQQRSVEPMRLSMDTPMPELQVGPQEQELRQLLHKDKSKRSAVASSVVKQKLAEVILKKQQAALERTVHPNSPGIPYRTLEPLETEGATRSMLSSFLPPVPSLPSDPPEHFPLRKTVSEPNLKLRYKPKKSLERRKNPLLRKESAPPSLRRRPAETLGDSSPSSSSTPASGCSSPNDSEHGPNPILGSEALLGQRLRLQETSVAPFALPTVSLLPAITLGLPAPARADSDRRTHPTLGPRGPILGSPHTPLFLPHGLEPEAGGTLPSRLQPILLLDPSGSHAPLLTVPGLGPLPFHFAQSLMTTERLSGSGLHWPLSRTRSEPLPPSATAPPPPGPMQPRLEQLKTHVQVIKRSAKPSEKPRLRQIPSAEDLETDGGGPGQVVDDGLEHRELGHGQPEARGPAPLQQHPQVLLWEQQRLAGRLPRGSTGDTVLLPLAQGGHRPLSRAQSSPAAPASLSAPEPASQARVLSSSETPARTLPFTTGLIYDSVMLKHQCSCGDNSRHPEHAGRIQSIWSRLQERGLRSQCECLRGRKASLEELQSVHSERHVLLYGTNPLSRLKLDNGKLAGLLAQRMFVMLPCGGVGVDTDTIWNELHSSNAARWAAGSVTDLAFKVASRELKNGFAVVRPPGHHADHSTAMGFCFFNSVAIACRQLQQQSKASKILIVDWDVHHGNGTQQTFYQDPSVLYISLHRHDDGNFFPGSGAVDEVGAGSGEGFNVNVAWAGGLDPPMGDPEYLAAFRIVVMPIAREFSPDLVLVSAGFDAAEGHPAPLGGYHVSAKCFGYMTQQLMNLAGGAVVLALEGGHDLTAICDASEACVAALLGNRVDPLSEEGWKQKPNLNAIRSLEAVIRVHSKYWGCMQRLASCPDSWVPRVPGADKEEVEAVTALASLSVGILAEDRPSEQLVEEEEPMNL
B6: SIPA1 (protein, UniProt Q96FS4 1-1042, looked up)
Signal-induced …: MPMWAGGVGSPRRGMAPASTDDLFARKLRQPARPPLTPHTFEPRPVRGPLLRSGSDAGEARPPTPASPRARAHSHEEASRPAATSTRLFTDPLALLGLPAEEPEPAFPPVLEPRWFAHYDVQSLLFDWAPRSQGMGSHSEASSGTLASAEDQAASSDLLHGAPGFVCELGGEGELGLGGPASPPVPPALPNAAVSILEEPQNRTSAYSLEHADLGAGYYRKYFYGKEHQNFFGMDESLGPVAVSLRREEKEGSGGGTLHSYRVIVRTTQLRTLRGTISEDALPPGPPRGLSPRKLLEHVAPQLSPSCLRLGSASPKVPRTLLTLDEQVLSFQRKVGILYCRAGQGSEEEMYNNQEAGPAFMQFLTLLGDVVRLKGFESYRAQLDTKTDSTGTHSLYTTYQDHEIMFHVSTMLPYTPNNQQQLLRKRHIGNDIVTIVFQEPGSKPFCPTTIRSHFQHVFLVVRAHTPCTPHTTYRVAVSRTQDTPAFGPALPAGGGPFAANADFRAFLLAKALNGEQAAGHARQFHAMATRTRQQYLQDLATNEVTTTSLDSASRFGLPSLGGRRRAAPRGPGAELQAAGSLVWGVRAAPGARVAAGAQASGPEGIEVPCLLGISAEALVLVAPRDGRVVFNCACRDVLAWTFSEQQLDLYHGRGEAITLRFDGSPGQAVGEVVARLQLVSRGCETRELALPRDGQGRLGFEVDAEGFVTHVERFTFAETAGLRPGARLLRVCGQTLPSLRPEAAAQLLRSAPKVCVTVLPPDESGRPRRSFSELYTLSLQEPSRRGAPDPVQDEVQGVTLLPTTKQLLHLCLQDGGSPPGPGDLAEERTEFLHSQNSLSPRSSLSDEAPVLPNTTPDLLLATTAKPSVPSADSETPLTQDRPGSPSGSEDKGNPAPELRASFLPRTLSLRNSISRIMSEAGSGTLEDEWQAISEIASTCNTILESLSREGQPIPESGDPKGTPKSDAEPEPGNLSEKVSHLESMLRKLQEDLQKEKADRAALEEEVRSLRHNNRRLQAESESAATRLLLASKQLGSPTADLA

tested on: GFP-14-3-3β and its binding proteins; test: GFP-14-3-3β co-IP with LC-MS/MS label-free quantification, untreated versus PP1c-treated; design: species or system human; conditions: log2 difference; pairwise comparison PP1 vs untreated, label-free quantification, 3 replicates each

Molecule | Difference (log2), PP1 vs untreated
B1 | 1.556

same assay, conditions: pairwise comparison PP1 vs untreated, student's t-test; 3 replicates each; LC-MS/MS label-free quantification

Molecule | Difference (log2), PP1 vs untreated [log2]
B2 | -2.76
B3 | -2.4581
B4 | -2.475
B5 | -2.551
B6 | -2.506

tested on: GFP-14-3-3β; test: GFP-14-3-3β co-IP with LC-MS/MS, untreated GFP-14-3-3β versus GFP control (14-3-3 interactome); type: binding, human; conditions: log2 difference; pairwise comparison untreated vs GFP, label-free quantification, 3 replicates each

Molecule | Difference (log2), untreated vs GFP
B1 | -0.08833

same assay, conditions: pairwise comparison untreated GFP-14-3-3β vs GFP, student's t-test; 3 replicates each; LC-MS/MS label-free quantification

Molecule | Difference (log2), untreated vs GFP [log2]
B2 | 5.784
B3 | 0.3778
B4 | 3.699
B5 | 7.896
B6 | 4.698
